Positions of bridges follow the written chain, without caps; N, C: chain ends. No end group written: not given here.
T1: peptide of amino acid residues 1-10 of IAPP (human, disulfide 2-7)
T1 construct: also called IAPP 1-10
T1 peptide: KCNTATCATQ

T2: human islet-amyloid polypeptide (IAPP) (human)
T2 construct: also called hIAPP; amylin
T2 peptide: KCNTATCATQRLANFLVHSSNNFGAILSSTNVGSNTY

T3: rat IAPP (rat, UniProt P12969 38-74)
T3 construct: also called rat islet-amyloid polypeptide
T3 peptide (looked up): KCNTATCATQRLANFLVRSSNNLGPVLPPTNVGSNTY

B1: murine 8A9 antibody (antibody, V domains shown)
VH: QVQLKESGPGLVAPSQSLSITCTVSGFSLTNYAVHWVRQPPGKGLEWLGVIWSGGNTNYNSALMSRLRISKDNSQSQVFLKMNSLQTDDTGMYYCARDRGYYGGIYGFANWGQGTLVTVSS
VL: DIQMTQSPSSLSASLGKRVSLTCRASQEISGYLSWLQQKPDGTIKRLIYAASTSDSGVPKRFSGSRSGSDYSLTISSVESEDFADYYCLQYADYPYTFGGGTKLEIK
notes: Mouse hybridoma antibody; also called m8A9; mouse 8A9 antibody
B2: humanized 8A9 antibody version H7L3 (antibody, V domains shown)
VH: QVQLQQSGPGLVKPSQSLSLTCTVSGFSLTNYAVHWVRQPPGKGLEWLGVIWSGGNTNYNSALMSRLTISKDNSQNQVFLKLNSLTTADTGVYYCARDRGYYGGIYGFANWGQGTLVTVSS
VL: DIQMTQSPSSLSASVGDRVTITCRASQEISGYLSWLQQKPGKAIKRLIYAASTSDSGVPSRFSGSRSGSDYTLTISSLQPEDFADYYCLQYADYPYTFGGGTKVEIK
notes: also called H8A9-H7L3

Tests used:
[1] = target: T1, peptide of amino acid residues 1-10 of …; experiment: epitope mapping
[2] = target: T2, human islet-amyloid polypeptide (IAPP); experiment: ELISA screen of hybridomas on IAPP
rat IAPP = target: T3, rat IAPP; experiment: Biacore SPR, antibody captured on anti-human CM5 chip, rat IAPP as analyte
Procedure: The affinity of various combinations of 8A9 humanized heavy chains and humanized light chain proteins for hIAPP was analyzed on a Biacore instrument. Biacore analysis was performed by preparing an anti-human CM5 chip following the protocol provided in the kit. The 8A9 antibody was captured such that the maximum binding of rat IAPP would not exceed 20-30 RU. […] Data was blank subtracted to both an irrelevant sensor not containing 8A9 and 0 IAPP concentration to account for the dissociation of 8A9 from the anti-human capture. Data was then analyzed using a global 1:1 fit.

Row | Binder | binding result [1] | binding result [2] | fold difference of affinity against murine 8A9 (rat IAPP)
1 | B1 | binds | binds | 
2 | B2 |  |  | < 2 fold

From patent US20150191541A1 (NEOTOPE BIOSCIENCES, published 2015)
